Reference: patent US9889184B2 (priority 2008, dated 2018)

Columns and labels:
Format in all cases: cell-based
[1] = test system: Colletotrichum graminicola; conditions: C. graminicola, 40 h, FIG. 7
Fusarium graminearum [2] = conditions: F. graminearum
Fusarium graminearum [3] = conditions: concentrations up to 18.5 uM in the absence of NaD1
[4] = test system: Fusarium oxysporum f. sp. vasinfectum (Fov); test: Growth of Fov with NaD1 and proteinase inhibitors (Example 6); conditions: 40 h, FIG. 6
Method: The inhibitory effects of defensin (NaD1) and proteinase inhibitors on the growth of Fusarium oxysporum f. sp. vasinfectum (Fov) (Australian isolate VCG01111 isolated from cotton and provided by Farming Systems Institute, DPI, Queensland, Australia) were measured essentially as described by Broekaert et al, supra 1990. Spores were isolated from sporulating cultures growing in ½ strength potato dextrose broth (PDB). The Fov culture was grown in ½ PDB for 1-2 weeks at room temperature, before spores were separated from hyphal matter by filtration through sterile tissue paper. The concentration of spores in the filtrate was measured using a hemocytometer. NaD1 and the proteinase inhibitors were prepared as described in Example 4. The conditions used for the fungal growth assay were the same as those described in Example 4. After 40h at 25° C. fungal growth was assessed by measuring optical density at 595 nm (A595).

B1: NaCys2: cystatin from Nicotiana alata, bacterially expressed (SEQ ID NO:4) (protein)
chain: MANLGGIREAGGSENSLEINDLARFAVDGHNKKQNALLEFRKVVNVKEQVVAGTMYYITLEATEGGKKKAYEAKVWVKPWQNFKQLEDFKLIGDAASA
modifications: Nicotiana alata (NaCys2)
- synergy with NaD1 on growth inhibition [1]: synergistic effect
- synergy with the petunia defensin PhD1A on growth inhibition (Fusarium graminearum [2]): synergistic effect
- synergy with the tomato defensin Tomdef2 on growth inhibition (Fusarium graminearum [2]): synergistic effect
- effect on hyphal growth (Fusarium graminearum [3]): no effect on hyphal growth
- synergy with NaD1 on growth inhibition [4]: Less, but significant synergy
